# Assay results: paper PMC3397886
# Assays:
# [1] = target: A3B3D (A-His8/ΔCys, A-C255A/A-S232A/A-T235S, D/E48C) labelled with Cy3-maleimide on subunit D (Thermus thermophilus) (UniProt Q56403); assay: FRET or BRET
# [2] = target: V1 (A-His8/ΔCys, A-C255A/A-S232A/A-T235S/F-S54C) labelled with Cy3-maleimide on subunit F (Thermus thermophilus) (UniProt Q56403); assay: FRET or BRET
substance,measurement,setting,value
Vo (C-S105C/C-C268S/C-C323S) labelled with Cy5-maleimide on subunit C (from UniProt P74902 1-323; P74901 1-188) (complex),Kd,[1],1.1 nM
same,Kd,[2],0.26 nM
